# Laboratory results: publication PMC3143253
# Where two headings read alike, the source gives them in different places.
# Key:
# [1] = target: calmodulin (UniProt P0DP23); test: ITC
# [2] = target: IAEDANS-labeled CaM-K75C (UniProt P0DP23); test: other fluorescence titration
# [3] = target: IAEDANS-labeled CaM-K75C (UniProt P0DP23); test: other fluorescence titration; remark: listed apart in the source
# [4] = target: TMR-conjugated CLS-S329C, reconstituted in liposomes (human); test: other fluorescence titration
Ka [1],Kd [1],dH [1],stoichiometry N [1],Kd [2],Kd [3],Kd [4],Substance
204000 M⁻¹,4900 nM,-0.77 kcal/mol,0.92,2500 nM,2100 nM,–,ARR18 peptide (entire cytoplasmic domain of human L-selectin)
–,–,–,–,–,–,1700 nM,calmodulin (from UniProt P0DP23 1-149) (natural protein)
